In the supplement of paper PMC10598134:
± gives the standard deviation.

Assay: collision cross section of modified peptide (TIMS, N2, iRT-aligned); higher = larger / more extended gas-phase ion
Procedure, shortened: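 Collision cross section was derived from the Mason-Schamp equation. Each value averages 1–3 technical replicates of the most abundant feature per charge state, measured on a timsTOF Pro/HT in dda-PASEF mode (nitrogen, ~2.4 mbar) after a 120-min nanoflow C18 gradient at 60 °C. Synthetic peptide pools (~100 fmol/µL in 2% acetonitrile/0.1% formic acid, iRT standard spiked 1:40) were identified with MaxQuant, and 1/K0 was calibrated with three reference ions and aligned run-wise to the median iRT peptide deviation.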

[1] = charge state: 2, modification: Nitro (Y)
[2] = charge state: 2, modification: Acetyl (K)
[3] = charge state: 3, modification: Acetyl (K)
[4] = charge state: 2, modification: Biotin
[5] = charge state: 2, modification: Butyryl
[6] = charge state: 2, modification: Crotonyl
[7] = charge state: 2, modification: Dimethyl (K)
[8] = charge state: 3, modification: Dimethyl (K)
[9] = charge state: 2, modification: Formyl
[10] = charge state: 2, modification: Glutarylation
[11] = charge state: 2, modification: GlyGly (K)
[12] = charge state: 3, modification: GlyGly (K)
[13] = charge state: 2, modification: Malonyl
[14] = charge state: 2, modification: Methyl (K)
[15] = charge state: 3, modification: Methyl (K)
[16] = charge state: 2, modification: Propionyl
[17] = charge state: 2, modification: Succinyl
[18] = charge state: 3, modification: Succinyl
[19] = charge state: 2, modification: Trimethyl (K)
[20] = charge state: 3, modification: Trimethyl (K)
[21] = charge state: 2, modification: hydroxyisobutyryl
[22] = charge state: 3, modification: hydroxyisobutyryl
[23] = charge state: 3, modification: Butyryl
[24] = charge state: 3, modification: Crotonyl
[25] = charge state: 3, modification: Glutarylation
[26] = charge state: 3, modification: Formyl

## VEPIHAVVLPRGK [_VEPIHAVVLPR(Methyl (R))GK_]
Charge state: 2, modification: Methyl (R)
  collision cross section: 424.97 ± 1 Å²
Charge state: 3, modification: Methyl (R)
  collision cross section: 489.93 ± 2.2 Å²

## VETFSGVYK [_VETFSGVY(Nitro (Y))K_]
[1]
  collision cross section: 348.3 ± 0.55 Å²

## VETFSGVYK [_VETFSGVY(Phospho (Y))K_]
Charge state: 2, modification: Phospho (Y)
  collision cross section: 345.95 ± 0.75 Å²

## VETTVTSLKTK [_VETTVTSLK(Acetyl (K))TK_]
[2]
  collision cross section: 378.83 ± 0.45 Å²
[3]
  collision cross section: 444.47 Å²

## VETTVTSLKTK [_VETTVTSLK(Biotin)TK_]
[4]
  collision cross section: 412.03 ± 1.9 Å²

## VETTVTSLKTK [_VETTVTSLK(Butyryl)TK_]
[5]
  collision cross section: 389.24 ± 1.3 Å²

## VETTVTSLKTK [_VETTVTSLK(Crotonyl)TK_]
[6]
  collision cross section: 389.71 ± 0.89 Å²

## VETTVTSLKTK [_VETTVTSLK(Dimethyl (K))TK_]
[7]
  collision cross section: 385.99 ± 0.37 Å²
[8]
  collision cross section: 450.04 ± 3.7 Å²

## VETTVTSLKTK [_VETTVTSLK(Formyl)TK_]
[9]
  collision cross section: 373.38 ± 0.89 Å²

## VETTVTSLKTK [_VETTVTSLK(Gluratylation)TK_]
[10]
  collision cross section: 392.12 ± 0.61 Å²

## VETTVTSLKTK [_VETTVTSLK(GlyGly (K))TK_]
[11]
  collision cross section: 391.21 ± 2 Å²
[12]
  collision cross section: 459.77 ± 2 Å²

## VETTVTSLKTK [_VETTVTSLK(Malonyl)TK_]
[13]
  collision cross section: 384.89 ± 0.011 Å²

## VETTVTSLKTK [_VETTVTSLK(Methyl (K))TK_]
[14]
  collision cross section: 381.5 ± 1.8 Å²
[15]
  collision cross section: 455.24 ± 7.2 Å²

## VETTVTSLKTK [_VETTVTSLK(Propionyl)TK_]
[16]
  collision cross section: 382.91 ± 0.92 Å²

## VETTVTSLKTK [_VETTVTSLK(Succinyl)TK_]
[17]
  collision cross section: 381.14 ± 3.4 Å²
[18]
  collision cross section: 451.06 Å²

## VETTVTSLKTK [_VETTVTSLK(Trimethyl (K))TK_]
[19]
  collision cross section: 391.95 ± 0.62 Å²
[20]
  collision cross section: 455.28 ± 8.1 Å²

## VETTVTSLKTK [_VETTVTSLK(hydroxyisobutyryl)TK_]
[21]
  collision cross section: 389.83 ± 0.81 Å²
[22]
  collision cross section: 450.94 ± 1.9 Å²

## VFIGNLNTLVVKK [_VFIGNLNTLVVK(Acetyl (K))K_]
[2]
  collision cross section: 409.46 ± 1.7 Å²
[3]
  collision cross section: 485 Å²

## VFIGNLNTLVVKK [_VFIGNLNTLVVK(Butyryl)K_]
[5]
  collision cross section: 414.54 ± 0.53 Å²
[23]
  collision cross section: 490.12 Å²

## VFIGNLNTLVVKK [_VFIGNLNTLVVK(Crotonyl)K_]
[6]
  collision cross section: 413.58 ± 0.34 Å²
[24]
  collision cross section: 479.51 Å²

## VFIGNLNTLVVKK [_VFIGNLNTLVVK(Dimethyl (K))K_]
[7]
  collision cross section: 427.12 ± 1.4 Å²
[8]
  collision cross section: 478.47 ± 1.2 Å²

## VFIGNLNTLVVKK [_VFIGNLNTLVVK(Formyl)K_]
[9]
  collision cross section: 407.78 ± 0.74 Å²

## VFIGNLNTLVVKK [_VFIGNLNTLVVK(Gluratylation)K_]
[10]
  collision cross section: 424.62 ± 0.97 Å²
[25]
  collision cross section: 495.12 ± 1.7 Å²

## VFIGNLNTLVVKK [_VFIGNLNTLVVK(GlyGly (K))K_]
[11]
  collision cross section: 445.95 ± 1.4 Å²
[12]
  collision cross section: 487.11 ± 2 Å²

## VFIGNLNTLVVKK [_VFIGNLNTLVVK(Malonyl)K_]
[13]
  collision cross section: 419.59 ± 0.57 Å²

## VFIGNLNTLVVKK [_VFIGNLNTLVVK(Methyl (K))K_]
[14]
  collision cross section: 423.04 ± 1.2 Å²
[15]
  collision cross section: 477.31 ± 4.3 Å²

## VFIGNLNTLVVKK [_VFIGNLNTLVVK(Succinyl)K_]
[17]
  collision cross section: 423.07 ± 0.53 Å²
[18]
  collision cross section: 489.97 ± 1.6 Å²

## VFIGNLNTLVVKK [_VFIGNLNTLVVK(Trimethyl (K))K_]
[19]
  collision cross section: 435.19 ± 1 Å²
[20]
  collision cross section: 485.88 ± 1.8 Å²

## VFIGNLNTLVVKK [_VFIGNLNTLVVK(hydroxyisobutyryl)K_]
[21]
  collision cross section: 416.95 ± 0.83 Å²
[22]
  collision cross section: 490.45 ± 2.8 Å²

## VFIGNLNTLVVKKK [_VFIGNLNTLVVK(Acetyl (K))KK_]
[3]
  collision cross section: 507.56 ± 1 Å²

## VFIGNLNTLVVKKK [_VFIGNLNTLVVK(Formyl)KK_]
[26]
  collision cross section: 499.94 Å²

## VFIGNLNTLVVKKK [_VFIGNLNTLVVK(Gluratylation)KK_]
[25]
  collision cross section: 521.05 ± 1.8 Å²

## VFIGNLNTLVVKKK [_VFIGNLNTLVVK(GlyGly (K))KK_]
[12]
  collision cross section: 502.69 ± 1.1 Å²

## VFIGNLNTLVVKKK [_VFIGNLNTLVVK(Malonyl)KK_]
Charge state: 3, modification: Malonyl
  collision cross section: 517.22 Å²

## VFIGNLNTLVVKKK [_VFIGNLNTLVVK(Methyl (K))KK_]
[15]
  collision cross section: 483.02 ± 5.9 Å²

## VFIGNLNTLVVKKK [_VFIGNLNTLVVK(Succinyl)KK_]
[18]
  collision cross section: 514.83 ± 3.9 Å²

## VFIGNLNTLVVKKK [_VFIGNLNTLVVK(Trimethyl (K))KK_]
[20]
  collision cross section: 488.61 ± 1.1 Å²

## VFIGNLNTLVVKKK [_VFIGNLNTLVVK(hydroxyisobutyryl)KK_]
[22]
  collision cross section: 515.31 ± 2.1 Å²

## VFLDCCNYITELR [_VFLDCCNY(Nitro (Y))ITELR_]
[1]
  collision cross section: 448.56 ± 0.53 Å²

## VFSIISSEKELK [_VFSIISSEK(Acetyl (K))ELK_]
[2]
  collision cross section: 405.7 ± 0.9 Å²

## VFSIISSEKELK [_VFSIISSEK(Biotin)ELK_]
[4]
  collision cross section: 432.12 ± 1.1 Å²

## VFSIISSEKELK [_VFSIISSEK(Butyryl)ELK_]
[5]
  collision cross section: 413.27 ± 0.78 Å²

## VFSIISSEKELK [_VFSIISSEK(Crotonyl)ELK_]
[6]
  collision cross section: 412.67 ± 0.34 Å²

## VFSIISSEKELK [_VFSIISSEK(Dimethyl (K))ELK_]
[7]
  collision cross section: 416.15 ± 1.1 Å²
[8]
  collision cross section: 490.22 ± 1.2 Å²

## VFSIISSEKELK [_VFSIISSEK(Formyl)ELK_]
[9]
  collision cross section: 402.55 ± 0.42 Å²

## VFSIISSEKELK [_VFSIISSEK(Gluratylation)ELK_]
[10]
  collision cross section: 415.44 ± 1.1 Å²

## VFSIISSEKELK [_VFSIISSEK(GlyGly (K))ELK_]
[11]
  collision cross section: 424.98 ± 0.97 Å²
[12]
  collision cross section: 493.89 ± 2 Å²

## VFSIISSEKELK [_VFSIISSEK(Malonyl)ELK_]
[13]
  collision cross section: 409.68 ± 0.66 Å²

## VFSIISSEKELK [_VFSIISSEK(Methyl (K))ELK_]
[14]
  collision cross section: 411.54 ± 0.9 Å²
[15]
  collision cross section: 489.57 ± 1.9 Å²

## VFSIISSEKELK [_VFSIISSEK(Succinyl)ELK_]
[17]
  collision cross section: 409.2 ± 4.2 Å²

## VFSIISSEKELK [_VFSIISSEK(Trimethyl (K))ELK_]
[19]
  collision cross section: 421.37 ± 1.1 Å²
[20]
  collision cross section: 454.68 ± 1.8 Å²

## VFSIISSEKELK [_VFSIISSEK(hydroxyisobutyryl)ELK_]
[21]
  collision cross section: 414.96 ± 0.83 Å²

## VGADGTVFATR [_VGADGTVFAT(HexNAc (ST))R_]
Charge state: 2, modification: HexNAc (ST)
  collision cross section: 366.62 ± 0.59 Å²

## VGEFSGANKEK [_VGEFSGANK(Acetyl (K))EK_]
[2]
  collision cross section: 363.56 ± 0.5 Å²

## VGEFSGANKEK [_VGEFSGANK(Biotin)EK_]
[4]
  collision cross section: 386.08 Å²

## VGEFSGANKEK [_VGEFSGANK(Butyryl)EK_]
[5]
  collision cross section: 369.78 ± 1.3 Å²

## VGEFSGANKEK [_VGEFSGANK(Crotonyl)EK_]
[6]
  collision cross section: 370.98 ± 0.8 Å²

## VGEFSGANKEK [_VGEFSGANK(Dimethyl (K))EK_]
[7]
  collision cross section: 376.33 ± 1.2 Å²
[8]
  collision cross section: 440.62 ± 2.8 Å²

## VGEFSGANKEK [_VGEFSGANK(Formyl)EK_]
[9]
  collision cross section: 358.59 ± 1.4 Å²

## VGEFSGANKEK [_VGEFSGANK(Gluratylation)EK_]
[10]
  collision cross section: 364.67 ± 0.089 Å²

## VGEFSGANKEK [_VGEFSGANK(GlyGly (K))EK_]
[11]
  collision cross section: 372.84 ± 0.89 Å²
[12]
  collision cross section: 452.89 ± 1.5 Å²

## VGEFSGANKEK [_VGEFSGANK(Malonyl)EK_]
[13]
  collision cross section: 354.12 ± 1.7 Å²

## VGEFSGANKEK [_VGEFSGANK(Methyl (K))EK_]
[14]
  collision cross section: 374.84 ± 0.74 Å²
[15]
  collision cross section: 443.95 ± 6.6 Å²

## VGEFSGANKEK [_VGEFSGANK(Propionyl)EK_]
[16]
  collision cross section: 367.87 ± 0.33 Å²

## VGEFSGANKEK [_VGEFSGANK(Succinyl)EK_]
[17]
  collision cross section: 357.27 ± 0.73 Å²

## VGEFSGANKEK [_VGEFSGANK(Trimethyl (K))EK_]
[19]
  collision cross section: 384.48 ± 1.7 Å²
[20]
  collision cross section: 437.18 ± 7.5 Å²

## VGEFSGANKEK [_VGEFSGANK(hydroxyisobutyryl)EK_]
[21]
  collision cross section: 364.17 ± 0.9 Å²
[22]
  collision cross section: 444.77 Å²

## VGIDTPDIDIHGPEGKLK [_VGIDTPDIDIHGPEGK(Acetyl (K))LK_]
[2]
  collision cross section: 490.05 Å²
[3]
  collision cross section: 536.56 ± 1.2 Å²

## VGIDTPDIDIHGPEGKLK [_VGIDTPDIDIHGPEGK(Butyryl)LK_]
[5]
  collision cross section: 496.6 ± 1 Å²
[23]
  collision cross section: 542.04 ± 1.1 Å²

## VGIDTPDIDIHGPEGKLK [_VGIDTPDIDIHGPEGK(Crotonyl)LK_]
[6]
  collision cross section: 496.91 Å²
[24]
  collision cross section: 540.02 ± 1.3 Å²

## VGIDTPDIDIHGPEGKLK [_VGIDTPDIDIHGPEGK(Dimethyl (K))LK_]
[8]
  collision cross section: 537.38 ± 0.61 Å²

## VGIDTPDIDIHGPEGKLK [_VGIDTPDIDIHGPEGK(Formyl)LK_]
[9]
  collision cross section: 485.77 ± 1.5 Å²
[26]
  collision cross section: 533.35 ± 1.3 Å²
